From US20220195404 come the findings set out here.

The data set has as its target TevCas9 H557A (I-TevI domain-linker-SaCas9 H557A nickase) (Enterobacteria phage T4 / Staphylococcus aureus) (UniProt P13299+J7RUA5). The data set is described as follows: cleavage_in_vitro.

Consider “EGFR guide RNA ; EGFR wild-type DNA substrate”, for which the relative cleavage rate (fold rate (reference)) (4-fold slower than exon 19 deletion substrate) worked out at 1.
Consider “EGFR guide RNA ; EGFR exon 19 deletion DNA substrate”, for which the binding signal (fold rate vs wild-type EGFR) (faster cleavage of exon 19 deletion, PAM not stated) was 4.
